This data set concerns the molecule itself. The data set can be described thus: SEC. In general terms: In gel filtration, larger molecules generally elute earlier.

B1: EspB_(1-338), N-terminal EspB fragment (domain or fragment)
chain: MTQSQTVTVDQQEILNRANEVEAPMADPPTDVPITPCELTAAKNAAQQLVLSADNMREYLAAGAKERQRLATSLRNAAKAYGEVDEEAATALDNDGEGTVQAESAGAVGGDSSAELTDTPRVATAGEPNFMDLKEAARKLETGDQGASLAHFADGWNTFNLTLQGDVKRFRGFDNWEGDAATACEASLDQQRQWILHMAKLSAAMAKQAQYVAQLHVWARREHPTYEDIVGLERLYAENPSARDQILPVYAEYQQRSEKVLTEYNNKAALEPVNPPKPPPAIKIDPPPPPQEQGLIPGFLMPPSDGSGVTPGTGMPAAPMVPPTGSPGGGLPADTAAQ
Turning to B1, the binding result is reported as “binds”.

The values above are taken from paper PMC4520771 (Journal of structural biology, 2015).
